Assay results reported in the DeepSol protein solubility set.

assay: soluble on expression in E. coli; label from the status in PepcDB or PDB records

Row | Sequence | soluble on expression in E. coli
1 | MGHHHHHHSHMAKLLSDLSVDSARCKPGNNLTKSLLNIHDKQLQHDPAPAHTSIMSYLNKLETNYSFTHSEPLSTIKNEETIEPDKTYENVLSSRGPQNSNTRGMEEASAPGIISALSKQDSDEGSETMALIEDEHNLDNTIYIPFARSTPEKKSPLSKRLSPQPQIRAATTQLVSNSGLAVSGEENKLCTPVICSSSTKEAEDAPEKLSRASDMKDTQLLKKIKEAIGKIPAATKEPEEQTACHGPSGCLSNSLQVKGNTVCDGSVFTSDLMSDWSISSFSTFTSRDEQDFRNGLAALDANIARLQKSLRTGLLEK | not soluble
2 | MGHHHHHHSHMALLVRVLRNQTSISQWVPVCSRLIPVSPTQGQGDRALSRTSQWPQMSQSQACGGSEQIPGIDIQLNRKYHTTRKLSTTKDSPQPVEEKVGAFTKIIEAMGFTGPLKYSKWKIKIAALRMYTSCVEKTDFEEFLLRCQMPDTFNSWFLITLLHVWMCLVRMKQEGRSGKYMCRIIVHFMWEDVQQRGRVMGVNPYILKKNMILMTNHFYAAILGYDEGILSDDHGLAAALWRTFFNRKCEDPRHLELLVEYVRKQIQYLDSMNGEDLLLTGEVSWRPLVEKNPQSILKPHSPTYNDEGL | not soluble
3 | MGHHHHHHSHMARKLKGKIGSKGLKGALLRHKAKVKLVRNIESKQKHELRKKNSSANNKTVKRNQEFQKLNQGKVMPFEKDETLMLCGEGDFSFARSIVEQNYIESDNLIITSYDNSVNELKLKYPHTFEENYQYLKDLNIPIFFQIDVTKLVKSFKISKNNTWFKIINRLSDHRWGNKPLQNIVFNFPHNGKGIKDQERNIREHQDLIFNFFQNSLQLFNLINTKIQNDTLRYTQGYDLNEDTPQAKKLTAEGYGNIILSLFDGEPYDSWQIKLLAKKNGLTLSRSSKFQWENFP | soluble
4 | MGHHHHHHSHMASKKPDKTYEEMVKEVERLKLENKTLKQKVKSSGAVSSDDSILTAAKRESIIVSSSRALGAVAMRKIEAKVRSRAAKAVTEQELTSLLQSLTLRVDVSMEETTVGASGGIGPSSQTETKKRRPRSKSRHRHDHE | not soluble
5 | MGHHHHHHSHMEAEESEKAATEQEPLEGTEQTLDAEEEQEESEEAACGSKKRVVPGIVYLGHIPPRFRPLHVRNLLSAYGEVGRVFFQAEDRFVRRKKKAAAAAGGKKRSYTKDYTEGWVEFRDKRIAKRVAASLHNTPMGARRRSPFRYDLWNLKYLHRFTWSHLSEHLAFERQVRRQRLRAEVAQAKRETDFYLQSVERGQRFLAADGDPARPDGSWTFAQRPTEQELRARKAARPGGRERARLATAQDKARSNKGLLARIFGAPPPSESMEGPSLVRDS | not soluble
6 | MGHHHHHHSHMECETDEQKQGSDENMSECETSSVCSSSDTGLFTNDEGRQGDDEQSDWFYEGECVPGFTVPNLLPKWAPDHCSEVERMDSGLDKFSDSTFLLPSRPAQRGYHTRLNRLPGAAARCLRKGRRRLVGKETSINTLGTERISHIISDPRQKDFWLPSAGKRERNQFNPLSPLYSLDVLADASHRRCSPAHCSARQANVHWGPPCSRVIKRKRKPVATASLSSPSAVHMDAVEPTTPASQAPKSPSSEWLVRTSAAEKATDATTATFFKMPQEKSPGYS | not soluble
7 | MGHHHHHHSHMEKSEPVDQRRHTAGKAIVDSRSAQPKETSEERKARLSEWKAGKGRVLKRPPNSVVTQHEPAGQNEKPVGSFWTTMAEEDEQRLFTEKVNNTFSECLNLINEGCPKEDILVTLNDLIKNIPDAKKLVKYWICLALIEPITSPIENIIAIYEKAILAGAQPIEEMRHTIVDILTMKSQEKANLGENMEKSCASKEEVQEVSIEDTGVDVDPEKLEMESKLHRNLLFQDCEKEQDNKTKDPTHDVKTPNTETRTSCLIKYNVSTTPYLQSVKKKVQFDGTNSAFKELKFLTPVRRSRRLQEKTSKLPDMLRDHYPCVSSLEQLTELGRETDAFVCRPNAALCRVYYEADTT | not soluble
8 | MGHHHHHHSHMENKMESIEQQVEVLLEQEPQLLPAAMAERLGVTEFDVVAALPQEMVAISPGEQAQTILESLVGFGPVTTIVHSFGSIFEVKAPFPKGKVARGYYNLMGREGELHGHLKLDNVKNIALVSKPFMGRESHYFGFFSECGSNIFKVYLGRDEKRELIAEQVTAFRAMQAELNQ | soluble
9 | MGHHHHHHSHMGKKIKKEVEPPPKDVFDPLMIESKKAATVVLMLNSPEEEILAKACEAIYKFALKGEENKTTLLELGAVEPLTKLLTHEDKIVRRNATMIFGILASNNDVKKLLRELDVMNSVIAQLAPEEEVVIHEFASLCLANMSAEYTSKVQIFEHGGLEPLIRLLSSPDPDVKKNSMECIYNLVQDFQCRAKLQELNAIPPILDLLKSEYPVIQLLALKTLGVIANDKESRTMLRDNQGLDHLIKILETKELNDLHIEALAVIANCLEDMDTMVQIQQTGGLKKLLSFAENSTIPDIQKNAAKAITKAAYDPENRKLFHEQEVEKCLVALLGSENDGTKIAASQAISAMCENSGSKDFFNNQGIPQLIQLLKSDNEEVREAAALALANLTTCNPANANAAAEADGIDPLINLLSSKRDGAIANAATVLTNMAMQEPLRLNIQNHDIMHAIISPLRSANTVVQSKAALAVTATACDVEARTELRNSGGLEPLVELLRSKNDEVRKHASWAVMVCAGDELTANELCRLGALDILEEVNVSGTRKNKFSEAAYNKLLNNNLSLKYSQTGYLSSSNIINDGFYDYGRINPGTKLLPLKEL | not soluble
10 | MGHHHHHHSHMGLSYQEELTLPFELCDVKSDIKLPLLLDYCLMVSGRQSAQLGRSNNNLLVDYKLVWIVTDYEITIHRLPHFQETIIIETKALSYNKFFCYRQFYIYDQEGGLLVDILAYFALLNPDTRKVATIPEDLVAPFETDFVKKLHRVPKMPLLEQSIDRDYYVRYFDIDMNGHVNNSKYLDWMYDVLGCEFLKTHQLLKMTLKYVKEVSPGGQITSSYHLDQLTSYHQIISDGQLNAQAMIEWRAIKPIESETD | not soluble
11 | MGHHHHHHSHMGVTCVSQMPVAEGKSVQQTVELLTRKLEMLGAEKQGTFCVDCETYHTAASTLGSQGQTGKLMYVMHNSEYPLSCFALFENGPCLIADTNFDVLMVKLKGFFQSAKASKIETRGTRYQYCDFLVKVGTVTMGPSARGISVEVEYGPCVVASDCWSLLLEFLQSFLGSHTPGAPAVFGNRHDAVYGPADTMVQYMELFNKIRKQQQVPVAGIR | soluble
12 | MGHHHHHHSHMIKLENELLLVEMKEAGAELTRIFHKDTKLEYLWNADSTFWGRHSPVLFPTVGRLVEDTYFVDGNPYHLGQHGFARDRDFKVVEHTENAVRFELDADEDSLTIYPYKFKLSIIYTIEKDSVAVSYEVENTDNKRIYFSIGAHPAFNLPLADGTTFEDYYLDFGTEENLETLCLEGPYRSGKIEKVVNEPARYLPLSYDLFKNDALIFEGLKQKEITIKSDKTPHFVKVSFPEFPFVGVWTAKAGTPFLCIEPWYGIADGAGKSVELRDKAGIEHLEPEAVFASEYKITIG | soluble
13 | MGHHHHHHSHMIRINEIKLPLDHEEGALLDAITKKLGIPAEKVISFNVFRRGYDARKKTNIHLIYTLDIIVEGDETALLAKFANDPHVRQTPDMEYKFVAKAPENLTERPIVIGFGPCGLFAGLVLAQMGFNPIIVERGKEVRERTKDTFGFWRKRTLNPESNVQFGEGGAGTFSDGKLYSQVKDPNFYGRKVITEFVEAGAPEEILYVSKPHIGTFKLVTMIEKMRATIIELGGEIRFSTRVDGLHMEDGQITGVTLSNGEEIKSRHVVLAVGHSARDTFEMLHERGVYMEAKPFSVGFRIEHKQSMIDEARFGPNAGHPILGAADYKLVHHCKNGRTVYSFCMCPGGTVVAATSEEGRVVTNGMSQYSRAERNANSAIVVGISPEVDYPGDPLAGIRFQRELESNAYKLGGENYDAPAQKIGDFLKGRDPSQLGDVEPSFTPGIKLTDLSKALPPFAVEAIREAIPAFDRKIKGFASEDGLLTGVETRTSSPVCIKRGKDFQSVNLKGFYPAGEGAGYAGGILSAGIDGIKVAEAVARDIVAAMENA | soluble
14 | MGHHHHHHSHMKFRAKIVDGACLNHFTRISNMIAKLAKTCTLRISPDKLNFILCDKLANGGVSMWCELEQENFFNEFQMEGVSAENNEIYLELTSENLSRALKTAQNARALKIKLTNKHFPCLTVSVELLSMSSSSRIVTHDIPIKVIPRKLWKDLQEPVVP | not soluble
